B1: Dacetuzumab (antibody, INN chains, looked up, V domains shown)
VH: EVQLVESGGGLVQPGGSLRLSCAASGYSFTGYYIHWVRQAPGKGLEWVARVIPNAGGTSYNQKFKGRFTLSVDNSKNTAYLQMNSLRAEDTAVYYCAREGIYWWGQGTLVTVSS
VL: DIQMTQSPSSLSASVGDRVTITCRSSQSLVHSNGNTFLHWYQQKPGKAPKLLIYTVSNRFSGVPSRFSGSGSGTDFTLTISSLQPEDFATYFCSQTTHVPWTFGQGTKVEIKR
B2: Bleslumab (antibody, INN chains, looked up, V domains shown)
VH: QLQLQESGPGLLKPSETLSLTCTVSGGSISSPGYYGGWIRQPPGKGLEWIGSIYKSGSTYHNPSLKSRVTISVDTSKNQFSLKLSSVTAADTAVYYCTRPVVRYFGWFDPWGQGTLVTVSS
VL: AIQLTQSPSSLSASVGDRVTITCRASQGISSALAWYQQKPGKAPKLLIYDASNLESGVPSRFSGSGSGTDFTLTISSLQPEDFATYYCQQFNSYPTFGQGTKVEIK

Experiments:
[1] = molecular target: biotinylated P17-Fc fusion protein (human) (UniProt P25942); assay: ELISA, biotinylated P17-Fc against titrated antibody
[2] = molecular target: P17-Fc fusion protein (human CD40 extracellular domain fused to human IgG1 Fc) (human) (UniProt P25942); assay: ELISA, P17-Fc against titrated antibody
[3] = molecular target: P17-Fc fusion protein (human CD40 extracellular domain fused to human IgG1 Fc) (human) (UniProt P25942); assay: ELISA, unbiotinylated P17-Fc against titrated antibody
[4] = molecular target: P17-Fc fusion protein (human CD40 extracellular domain fused to human IgG1 Fc) (human) (UniProt P25942); assay: ELISA on P17-Fc, positive control
[5] = molecular target: human CD40 expressed on the cell surface (human) (UniProt P25942); assay: blocking assay by flow cytometry: CHO-K-huCD40 cells with titrated antibody, then CD40L-biotin (200 ng/mL) and PE-streptavidin; blocked ligand CD40L
[6] = molecular target: human CD40 expressed on the cell surface (human) (UniProt P25942); assay: flow cytometry on CHO-K-huCD40 cells, APC anti-human IgG Fc secondary antibody

Chain of P17-Fc fusion protein (human CD40 extracellular domain fused to human IgG1 Fc) (human) (P25942 21-193 limits assumed): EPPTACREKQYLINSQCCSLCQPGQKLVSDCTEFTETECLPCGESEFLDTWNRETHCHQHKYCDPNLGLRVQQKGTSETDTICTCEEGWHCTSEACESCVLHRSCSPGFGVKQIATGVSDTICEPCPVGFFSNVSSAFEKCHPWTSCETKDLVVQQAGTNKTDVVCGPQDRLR
Chain of biotinylated P17-Fc fusion protein (human) (P25942 21-193 limits assumed): as above
Chain of human CD40 expressed on the cell surface (human) (P25942 21-277): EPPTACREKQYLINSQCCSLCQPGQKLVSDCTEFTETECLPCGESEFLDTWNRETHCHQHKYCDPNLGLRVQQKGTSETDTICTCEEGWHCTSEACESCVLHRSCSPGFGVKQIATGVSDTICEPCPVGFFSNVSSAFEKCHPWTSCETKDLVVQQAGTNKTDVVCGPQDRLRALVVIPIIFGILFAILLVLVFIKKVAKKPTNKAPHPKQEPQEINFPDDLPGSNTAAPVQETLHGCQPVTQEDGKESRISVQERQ

| Binder | EC50 (read off the curve) [1] [µg/mL] | EC50 (read off the curve) [2] [µg/mL] | EC50 (read off the curve) [3] [µg/mL] | EC50 [4] [µg/mL] | IC50 (read off the curve) [5] [µg/mL] | EC50 (read off the curve) [6] [µg/mL] |
| --- | --- | --- | --- | --- | --- | --- |
| B1 | 0.08 | 0.3 | 0.08 |  |  |  |
| B2 | 0.08 | 0.2 | 0.08 | 0.047 | 1 | 0.7 |

Reference: patent publication US20240218071A1
